Reference: patent publication US20190314417A1, “IMMUNOSUPPRESSIVE MESENCHYMAL CELLS AND METHODS FOR FORMING SAME” (The Trustees of Columbia University In The City of New York, priority 2016, published 2019)
Structures can show the parent of a compound that is named as a salt.

Columns and labels:
Assay type in all cases: cell-based, human
GLUT1 = experiment: Hypoxia mimetic titration: GLUT1 in MSCs; conditions: different concentrations, FIG. 24
Protocol: Studies were carried out to determine the effect of hypoxia mimicking agents CoCl2 and DFO on MSCs (FIG. 24).

[1] = system: CD4+ and CD8+ T-cell division; experiment: Lactic acid titration: T-cell division in response to Concanavalin A; conditions: ConA 5 μg/mL, Day 3
Protocol: PBMCs were thawed, as previously described, and stained in HEPES buffered saline at 37° C. for 30 minutes with pHrodo® Red AM (Thermo Fisher) as per manufacturer's instructions (1000× dilution of dye). […] Cells were resuspended in these new media and incubated at 37° C. for 30 minutes. Immediately prior to each flow cytometry reading, each sample was diluted 1:9 with BD Stain Buffer and mixed well. This neutralized external pH and diluted media components without permitting time for intracellular lactate to be exported. […] Cells were plated in 96-well U-bottom plates at 200 000 cells per well. ConA was added to be 5 μg/mL, and PBMCs were analyzed by flow cytometry on Day 3.

T-cells = experiment: Lactic acid titration: intracellular pH and scatter of T-cells (pHrodo Red AM); conditions: fresh complete AIM-V media, 30 minutes
IDO [2] = experiment: IFN-γ titration: IDO expression in MSCs by flow cytometry; conditions: 48 hours of exposure
Protocol: (§1) Titration studies were carried out to determine whether IFN-γ at different concentrations or for different time periods had differential effects on MSC expression of IDO and/or PD-L1 (FIGS. 22 & 23). […] Thus, the IFN-γ dose could be used in a range of 0.1 ng/mL to 100 ng/mL for future animal and human studies, while still reproducing the same beneficial phenotype, with the lower end of that range more likely to mimic physiologic conditions in humans. […] Therefore, priming of MSCs may be carried out for less than 48 hours to achieve biological effects.

IDO [3] = experiment: Onset kinetics of IDO expression in MSCs exposed to IFN-γ; conditions: 10 ng/mL IFN-γ
Protocol: as §1

PD-L1 = experiment: Onset kinetics of PD-L1 expression in MSCs exposed to IFN-γ; conditions: 10 ng/mL IFN-γ
Protocol: as §1

**Q.** How did the “GLUT1 upregulation in MSCs” value (GLUT1) turn out when `[Cl][Co][Cl]` [CoCl2, cobalt chloride] was run?
**A.** The value was “able to upregulate GLUT 1”.

**Q.** How did the “GLUT1 upregulation in MSCs” value (GLUT1) turn out when `CC(=O)N(O)CCCCCNC(=O)CCC(=O)N(O)CCCCCNC(=O)CCC(=O)N(O)CCCCCN` [DFO, deferoxamine mesylate/desferrioxamine] was run?
**A.** Its value is “able to upregulate GLUT 1”.

**Q.** `C[C@H](O)C(=O)O` [lactic acid, L-lactic acid] was tested. Which “T-cell division at lactate 15 mM” value ([1]; lactate concentration of 15 mM) did it give?
**A.** Its value is “almost completely eliminated”.

**Q.** And the “T-cell division, % of the maximum rate” value ([1]; lactic acid concentration not given)?
**A.** Its value is 30-45%.

**Q.** What about the “extracellular lactic acid level at which drop in T-cell pHi started to become pronounced” value (T-cells) of the same molecule?
**A.** The value was 15 mM.

B1: IFN-γ: pro-inflammatory cytokine (Peprotech) used to prime MSCs (protein, UniProt P01579 24-161, looked up)
Interferon gamma: QDPYVKEAENLKKYFNAGHSDVADNGTLFLGILKNWKEESDRKIMQSQIVSFYFKLFKNFKDDQSIQKSVETIKEDMNVKFFNSNKKKRDDFEKLTNYSVTDLNVQRKAIHELIQVMAELSPAAKTGKRKRSQMLFRG
**Q.** Which “IDO induction at 0.1 ng/mL” value (IDO [2]; 0.1 ng/mL) does the source give for B1 here?
**A.** The value was “significant induction”.

**Q.** What about the “IFN-γ concentration required for maximum IDO induction” value (IDO [2]) of the same molecule?
**A.** Its value is “at least 1 ng/mL”.

**Q.** And the “exposure time after which IDO is already upregulated” value (IDO [3])?
**A.** Its value is 6 h.

**Q.** What about the “exposure time required for maximum IDO expression” value (IDO [3]) of the same molecule?
**A.** Its value is 48 h.

**Q.** What about the “exposure time after which PD-L1 is already upregulated” value (PD-L1) of the same molecule?
**A.** The value was 6 h.

**Q.** What about the “exposure time required for maximum PD-L1 expression” value (PD-L1) of the same molecule?
**A.** The value was 48 h.
